# Data published in patent EP4786495A1 (Nanjing Leads Biolabs Co., Ltd., dated 2026).
# Residue numbers refer to the chain shown, from its start.
# T1: human BDCA2 protein (Kactus Biosystems, Cat# BCA-HM402) (human, UniProt Q8WTT0 45-213)
# T1 construct: also called Human BDCA2-His
# T1 sequence: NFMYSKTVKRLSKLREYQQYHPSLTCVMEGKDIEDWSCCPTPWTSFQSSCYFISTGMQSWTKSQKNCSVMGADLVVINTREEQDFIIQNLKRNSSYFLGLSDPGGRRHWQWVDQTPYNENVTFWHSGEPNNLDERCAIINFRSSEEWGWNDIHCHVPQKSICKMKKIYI
# T2: human APRIL protein (ACRO Biosystems, Cat. No.: APL-H52D1) (human, UniProt O75888 115-250, limits assumed)
# T2 sequence (looked up): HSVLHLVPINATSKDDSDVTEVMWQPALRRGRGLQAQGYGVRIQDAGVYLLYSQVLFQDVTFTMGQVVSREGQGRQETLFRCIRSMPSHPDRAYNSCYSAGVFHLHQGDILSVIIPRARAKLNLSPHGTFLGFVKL
# B1: anti-BDCA2 chimeric antibody 26H10A11-1 (antibody, human IgG1, kappa, V domains shown)
# VH: DVKLVESGGGLVKPGGSLKLSCAASGFTFSSSTMSWVRQTPEKRLEWVATTGGGGSYTYNPDSVKGRFTISRDNAKNTLYLQMSSLRSEDTAMYYCTRDRYDGYYFSMDFWGQGTSVTVSS
# VL: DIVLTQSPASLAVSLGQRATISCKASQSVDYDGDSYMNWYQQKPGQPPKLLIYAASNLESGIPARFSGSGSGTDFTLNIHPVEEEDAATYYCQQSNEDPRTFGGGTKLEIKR
# B2: anti-BDCA2 chimeric antibody 37F2C6 (antibody, human IgG1, kappa, V domains shown)
# VH: QVLLQQSGPELVRPGVSVKVSCKGSGYTFTDFAVHWVKQSQTKSLEWIGLIGTSSGSTNYNQKFKDKATMTVDKSSNTAYLELARLTSEDSAIYYCARNGYYVGYYALDYWGQGTSVTVSS
# VL: QTVLTQSPAIMSASPGEKVTITCSASSSVSYMYWFQQKPGTSPKLWIYSTSNLASGVPPRFSGSGSGTSYSLTISRMEAEDAATYYCQQRRNYPHTFGGGTKLEIKR
# B3: control antibody litifilimab analogue (antibody, human IgG1, kappa, V domains shown)
# VH: DVQLVESGGGLVKPGGSLRLSCAASGFTFSTYTMSWVRQAPGKGLEWVATISPGDSFGYYYPDSVQGRFTISRDNAKNSLYLQMNSLRAEDTAVYYCTRDIYYNYGAWFAYWGQGTLVTVSS
# VL: DIQLTQSPSSLSASVGDRVTITCKASQSVDYDGDSYMNWYQQKPGKAPKLLIYAASTLESGVPSRFSGSGSGTDFTLTISSLQPEDFATYYCQQANEDPRTFGQGTKVEIKR
# notes: Anti-BDCA2 control antibody expressed in ExpiCHO-S cells
# B4: anti-BDCA2 humanized antibody Hu37F2C6-8 (antibody, human IgG1, kappa, V domains shown)
# VH: QVQLVQSGAEVKKPGASVKVSCKASGYTFTDFAVHWVRQAPGQRLEWMGLIGTSSGSTNYNQKFQGRVTMTVDKSANTAYMELSSLRSEDTAVYYCARNGYYVGYYALDYWGQGTTVTVSS
# VL: ETVLTQSPATLSLSPGERATLSCRASSSVSYMYWFQQKPGQAPRLLIYSTSNLASGIPARFSGSGSGTDYTLTISSLEPEDFAVYYCQQRRNYPHTFGGGTKVEIKR
# B5: anti-BDCA2 humanized antibody Hu37F2C6-9 (antibody, human IgG1, kappa, V domains shown)
# VH: B4 VH with V68A
# VL: B4 VL
# notes: also called humanized 37F2C6-9
# B6: bispecific fusion protein BI-9D2-A (bispecific antibody, human IgG1, kappa)
# heavy: not shown
# light: ETVLTQSPATLSLSPGERATLSCRASSSVSYMYWFQQKPGQAPRLLIYSTSNLASGIPARFSGSGSGTDYTLTISSLEPEDFAVYYCQQRRNYPHTFGGGTKVEIKRTVAAPSVFIFPPSDEQLKSGTASVVCLLNNFYPREAKVQWKVDNALQSGNSQESVTEQDSKDSTYSLSSTLTLSKADYEKHKVYACEVTHQGLSSPVTKSFNRGEC
# notes: also called heavy chain 37F2C6-HuVH3-D2
# B7: bispecific fusion protein BI-9NTACI-A (bispecific antibody, human IgG1, kappa)
# heavy: not shown
# light: B6 light
# notes: also called heavy chain 37F2C6-HuVH3-3N-TACI
# Tests used:
# [1] = molecular target: T1, human BDCA2 protein (Kactus Biosystems, …); experiment: BLI Octet RED96, antibody captured on AHC sensor, BDCA2 50 nM in solution
# [2] = molecular target: T1, human BDCA2 protein (Kactus Biosystems, …); experiment: BLI Octet RED96e, antibody captured on AHC sensor, BDCA2 100 nM in solution
# [3] = molecular target: T3, human BAFF protein (ACRO Biosystems, Cat. No.: BAF-H52D4) (human, UniProt Q9Y275 134-285); experiment: BLI Octet RED96e, protein captured on AHC sensor, BAFF 100 nM in solution
# [4] = molecular target: T2, human APRIL protein (ACRO Biosystems, …); experiment: BLI Octet RED96e, protein captured on AHC sensor, APRIL 100 nM in solution
# [5] = molecular target: T1, human BDCA2 protein (Kactus Biosystems, …); experiment: BLI Octet RED96e, protein captured on AHC sensor, BDCA2 100 nM in solution
# [6] = molecular target: T1, human BDCA2 protein (Kactus Biosystems, …); experiment: BLI Octet RED96e, fusion protein captured on AHC sensor, BDCA2 1.56-100 nM in solution
# [7] = molecular target: T3, human BAFF protein (ACRO Biosystems, …); experiment: BLI Octet RED96e, protein captured on AHC sensor, BAFF 1.56-100 nM in solution
# [8] = molecular target: T2, human APRIL protein (ACRO Biosystems, …); experiment: BLI Octet RED96e, protein captured on AHC sensor, APRIL 1.56-100 nM in solution
# T3 sequence (Q9Y275 134-285 limits assumed): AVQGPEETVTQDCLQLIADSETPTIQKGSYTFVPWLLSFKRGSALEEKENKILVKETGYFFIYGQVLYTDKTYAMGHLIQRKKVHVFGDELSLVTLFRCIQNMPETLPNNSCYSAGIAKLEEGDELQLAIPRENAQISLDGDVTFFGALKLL
binder,measurement,setting,value
B1,Kd,[1],0.503 nM
same,koff,[1],6.16e-05 s⁻¹
same,kon,[1],123000 M⁻¹ s⁻¹
B2,Kd,[1],< 0.001 nM
same,koff,[1],< 1e-07 s⁻¹
same,kon,[1],161000 M⁻¹ s⁻¹
same,Kd,[2],< 1 pM
same,koff,[2],< 1e-07 s⁻¹
same,kon,[2],141000 M⁻¹ s⁻¹
B3,Kd,[3],< 1 pM
same,Response (nm),[3],0.0284 nm
same,koff,[3],< 1e-07 s⁻¹
same,kon,[3],300000 M⁻¹ s⁻¹
same,Kd,[4],6.5 nM
same,Response (nm),[4],0.296 nm
same,koff,[4],0.000643 s⁻¹
same,kon,[4],99000 M⁻¹ s⁻¹
same,Kd,[5],< 1 pM
same,Response (nm),[5],0.444 nm
same,koff,[5],< 1e-07 s⁻¹
same,kon,[5],172000 M⁻¹ s⁻¹
B4,Kd,[2],< 1 pM
same,koff,[2],< 1e-07 s⁻¹
same,kon,[2],113000 M⁻¹ s⁻¹
B5,Kd,[2],< 1 pM
same,koff,[2],< 1e-07 s⁻¹
same,kon,[2],121000 M⁻¹ s⁻¹
B6,Kd,[3],< 1 pM
same,Response (nm),[3],0.338 nm
same,koff,[3],< 1e-07 s⁻¹
same,kon,[3],407000 M⁻¹ s⁻¹
same,Kd,[4],0.246 nM
same,Response (nm),[4],0.252 nm
same,koff,[4],0.000214 s⁻¹
same,kon,[4],873000 M⁻¹ s⁻¹
same,Kd,[6],< 1 pM
same,koff,[6],< 1e-07 s⁻¹
same,kon,[6],88800 M⁻¹ s⁻¹
same,Kd,[7],< 0.001 nM
same,koff,[7],< 1e-07 s⁻¹
same,kon,[7],571000 M⁻¹ s⁻¹
same,Kd,[5],< 1 pM
same,Response (nm),[5],0.481 nm
same,koff,[5],< 1e-07 s⁻¹
same,kon,[5],154000 M⁻¹ s⁻¹
same,Kd,[8],0.679 nM
same,koff,[8],0.00059 s⁻¹
same,kon,[8],868000 M⁻¹ s⁻¹
B7,Kd,[6],< 1 pM
same,koff,[6],< 1e-07 s⁻¹
same,kon,[6],85400 M⁻¹ s⁻¹
same,Kd,[7],0.951 nM
same,koff,[7],0.000342 s⁻¹
same,kon,[7],360000 M⁻¹ s⁻¹
same,Kd,[8],0.619 nM
same,koff,[8],0.000478 s⁻¹
same,kon,[8],772000 M⁻¹ s⁻¹
